Measured values from patent US20190276511A1 (BIONTECH RNA PHARMACEUTICALS, published 2019).

T1: CD27-Fc (human, UniProt P26842 20-191)
T1 construct: extracellular domain; hinge included for covalent assembly; also called CD27 receptor-Fc fusion protein; not shown: human Fc gamma 1 region including the hinge region
T1 sequence (looked up): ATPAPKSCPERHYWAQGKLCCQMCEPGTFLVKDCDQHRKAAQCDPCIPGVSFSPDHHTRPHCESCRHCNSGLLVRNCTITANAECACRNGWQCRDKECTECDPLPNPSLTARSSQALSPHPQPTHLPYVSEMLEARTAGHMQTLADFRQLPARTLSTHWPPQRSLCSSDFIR

T2: OX40-Fc (human, UniProt P43489 29-214)
T2 construct: extracellular domain; hinge included for covalent assembly; also called OX40 receptor-Fc fusion protein; not shown: human Fc gamma 1 region including the hinge region
T2 sequence (looked up): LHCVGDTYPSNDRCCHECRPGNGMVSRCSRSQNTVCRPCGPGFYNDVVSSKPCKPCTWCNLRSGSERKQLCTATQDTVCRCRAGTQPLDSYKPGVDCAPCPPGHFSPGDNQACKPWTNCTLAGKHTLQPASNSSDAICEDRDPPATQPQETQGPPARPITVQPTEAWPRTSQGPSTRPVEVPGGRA

T3: OX40 receptor on cells (human, UniProt P43489 29-277)
T3 sequence (looked up): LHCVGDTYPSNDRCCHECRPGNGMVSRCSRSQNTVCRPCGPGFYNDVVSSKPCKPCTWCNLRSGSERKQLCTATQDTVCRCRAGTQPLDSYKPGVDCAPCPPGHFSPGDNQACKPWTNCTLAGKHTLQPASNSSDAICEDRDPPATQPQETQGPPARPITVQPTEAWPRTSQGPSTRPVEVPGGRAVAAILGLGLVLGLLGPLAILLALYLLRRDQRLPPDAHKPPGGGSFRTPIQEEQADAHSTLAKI


What was measured:
4-1BB receptor on cells = 4-1BB receptor on cells (human, UniProt Q07011 24-255); test: cell-based or functional assay
Chain of 4-1BB receptor on cells (Q07011 24-255): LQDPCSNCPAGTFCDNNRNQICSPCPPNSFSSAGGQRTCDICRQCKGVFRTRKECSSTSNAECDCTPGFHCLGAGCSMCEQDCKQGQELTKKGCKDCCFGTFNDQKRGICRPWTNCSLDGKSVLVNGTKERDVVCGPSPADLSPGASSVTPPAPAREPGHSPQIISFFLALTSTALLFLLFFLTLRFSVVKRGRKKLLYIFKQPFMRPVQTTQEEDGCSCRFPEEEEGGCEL

CD27-Fc [1] = target: T1, CD27-Fc; test: ELISA, coated receptor-Fc
Method: (§1) Receptor binding of the single-chain Duokines was analyzed by ELISA using fusion proteins of the extracellular region of CD40, CD27, 4-1BB and OX40, respectively, with the human Fcγ1 region including the hinge region for covalent assembly (CD40-Fc, CD27-Fc, 4-1BB-Fc, OX40-Fc). Receptor-Fc fusion proteins (200 ng/well) were coated overnight at 4° C. and remaining binding sites were blocked with PBS, 2% skimmed milk powder (2% MPBS). […] The interactions between scDuokine and receptor were dose-dependent with EC₅₀ values in the low nanomolar ranges (FIG. 11 AB, Tab. 2).

4-1BB-Fc = target: T4, 4-1BB-Fc (human, UniProt Q07011 24-186); test: ELISA, coated receptor-Fc
T4 construct: extracellular domain; hinge included for covalent assembly; also called 4-1BB receptor-Fc fusion protein; not shown: human Fc gamma 1 region including the hinge region
Method: as §1

CD40-Fc [2] = target: T5, CD40-Fc (human, UniProt P25942 21-193); test: ELISA, coated receptor-Fc
T5 construct: extracellular domain; hinge included for covalent assembly; also called CD40 receptor-Fc fusion protein; not shown: human Fc gamma 1 region including the hinge region
T5 sequence (P25942 21-193 limits assumed): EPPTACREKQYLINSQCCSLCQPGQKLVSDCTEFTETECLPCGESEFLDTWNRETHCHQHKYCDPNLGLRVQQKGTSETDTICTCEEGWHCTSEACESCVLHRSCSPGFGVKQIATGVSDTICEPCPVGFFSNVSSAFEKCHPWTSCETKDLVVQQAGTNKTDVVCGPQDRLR

OX40-Fc [3] = target: T2, OX40-Fc; test: ELISA, coated receptor-Fc
OX40 receptor on cells = target: T3, OX40 receptor on cells; test: cell-based or functional assay
OX40-Fc [4] = target: T2, OX40-Fc; test: ELISA, coated receptor-Fc; remark: listed apart in the source
Method: as §1

CD27-Fc [5] = target: T1, CD27-Fc; test: ELISA, coated receptor-Fc; remark: listed apart in the source
CD40 receptor on cells = CD40 receptor on cells (human, UniProt P25942 21-277); test: cell-based or functional assay
Chain of CD40 receptor on cells (P25942 21-277): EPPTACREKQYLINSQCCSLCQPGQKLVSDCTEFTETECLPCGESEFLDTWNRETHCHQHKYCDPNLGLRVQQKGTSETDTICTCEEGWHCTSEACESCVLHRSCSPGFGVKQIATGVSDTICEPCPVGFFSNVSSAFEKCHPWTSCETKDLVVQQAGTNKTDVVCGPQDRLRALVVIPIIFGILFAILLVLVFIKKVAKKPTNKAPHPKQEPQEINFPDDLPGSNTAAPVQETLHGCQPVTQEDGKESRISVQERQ

CD40-Fc [6] = target: T5, CD40-Fc; test: ELISA, coated receptor-Fc; remark: listed apart in the source
Method: as §1

Binder | Receptor activation (EC50, nM) (4-1BB receptor on cells) [nM] | EC50 (CD27-Fc [1]) [nM] | EC50 (4-1BB-Fc) [nM] | binding result (CD40-Fc [2]) | binding result (OX40-Fc [3]) | Receptor activation (EC50, nM) (OX40 receptor on cells) [nM] | EC50 (OX40-Fc [4]) [nM] | binding result (CD27-Fc [5]) | Receptor activation (EC50, nM) (CD40 receptor on cells) [nM] | EC50 (CD40-Fc [6]) [nM]
scCD27L-sc4-1BBL (ligand, scDuokine from HEK293; VH leader left out; also called single-chain Duokine scCD27L-sc4-1BBL; not shown: N-terminal FLAG tag) SLGWDVAELQLNHTGPQQDPRLYWQGGPALGRSFLHGPELDKGQLRIHRDGIYMVHIQVTLAICSSTTASRHHPTTLAVGICSPASRSISLLRLSFHQGCTIASQRLTPLARGDTLCTNLTGTLLPSRNTDETFFGVQWVRPGGGSGGGSLGWDVAELQLNHTGPQQDPRLYWQGGPALGRSFLHGPELDKGQLRIHRDGIYMVHIQVTLAICSSTTASRHHPTTLAVGICSPASRSISLLRLSFHQGCTIASQRLTPLARGDTLCTNLTGTLLPSRNTDETFFGVQWVRPGGGSGGGSLGWDVAELQLNHTGPQQDPRLYWQGGPALGRSFLHGPELDKGQLRIHRDGIYMVHIQVTLAICSSTTASRHHPTTLAVGICSPASRSISLLRLSFHQGCTIASQRLTPLARGDTLCTNLTGTLLPSRNTDETFFGVQWVRPGGGGSGGGTGGGGSREGPELSPDDPAGLLDLRQGMFAQLVAQNVLLIDGPLSWYSDPGLAGVSLTGGLSYKEDTKELVVAKAGVYYVFFQLELRRVVAGEGSGSVSLALHLQPLRSAAGAAALALTVDLPPASSEARNSAFGFQGRLLHLSAGQRLGVHLHTEARARHAWQLTQGATVLGLFRVTPEIPAGLPSPRSEGGGGSGGGGSGGGGSREGPELSPDDPAGLLDLRQGMFAQLVAQNVLLIDGPLSWYSDPGLAGVSLTGGLSYKEDTKELVVAKAGVYYVFFQLELRRVVAGEGSGSVSLALHLQPLRSAAGAAALALTVDLPPASSEARNSAFGFQGRLLHLSAGQRLGVHLHTEARARHAWQLTQGATVLGLFRVTPEIPAGLPSPRSEGGGGSGGGGSGGGGSREGPELSPDDPAGLLDLRQGMFAQLVAQNVLLIDGPLSWYSDPGLAGVSLTGGLSYKEDTKELVVAKAGVYYVFFQLELRRVVAGEGSGSVSLALHLQPLRSAAGAAALALTVDLPPASSEARNSAFGFQGRLLHLSAGQRLGVHLHTEARARHAWQLTQGATVLGLFRVTPEIPAGLPSPRSE | 1.5 | 9.23 | 4.57 | no binding (tested: 100 nM (FIG. 10)) | no binding (tested: 100 nM (FIG. 10)) |  |  |  |  | 
scOX40L-sc4-1BBL (ligand, scDuokine from HEK293; VH leader left out; also called single-chain Duokine scOX40L-sc4-1BBL; not shown: N-terminal FLAG tag) QVSHRYPRIQSIKVQFTEYKKEKGFILTSQKEDEIMKVQNNSVIINCDGFYLISLKGYFSQEVNISLHYQKDEEPLFQLKKVRSVNSLMVASLTYKDKVYLNVTTDNTSLDDFHVNGGELILIHQNPGEFCVLGGGSGGGQVSHRYPRIQSIKVQFTEYKKEKGFILTSQKEDEIMKVQNNSVIINCDGFYLISLKGYFSQEVNISLHYQKDEEPLFQLKKVRSVNSLMVASLTYKDKVYLNVTTDNTSLDDFHVNGGELILIHQNPGEFCVLGGGSGGGQVSHRYPRIQSIKVQFTEYKKEKGFILTSQKEDEIMKVQNNSVIINCDGFYLISLKGYFSQEVNISLHYQKDEEPLFQLKKVRSVNSLMVASLTYKDKVYLNVTTDNTSLDDFHVNGGELILIHQNPGEFCVLGGGGSGGGTGGGGSREGPELSPDDPAGLLDLRQGMFAQLVAQNVLLIDGPLSWYSDPGLAGVSLTGGLSYKEDTKELVVAKAGVYYVFFQLELRRVVAGEGSGSVSLALHLQPLRSAAGAAALALTVDLPPASSEARNSAFGFQGRLLHLSAGQRLGVHLHTEARARHAWQLTQGATVLGLFRVTPEIPAGLPSPRSEGGGGSGGGGSGGGGSREGPELSPDDPAGLLDLRQGMFAQLVAQNVLLIDGPLSWYSDPGLAGVSLTGGLSYKEDTKELVVAKAGVYYVFFQLELRRVVAGEGSGSVSLALHLQPLRSAAGAAALALTVDLPPASSEARNSAFGFQGRLLHLSAGQRLGVHLHTEARARHAWQLTQGATVLGLFRVTPEIPAGLPSPRSEGGGGSGGGGSGGGGSREGPELSPDDPAGLLDLRQGMFAQLVAQNVLLIDGPLSWYSDPGLAGVSLTGGLSYKEDTKELVVAKAGVYYVFFQLELRRVVAGEGSGSVSLALHLQPLRSAAGAAALALTVDLPPASSEARNSAFGFQGRLLHLSAGQRLGVHLHTEARARHAWQLTQGATVLGLFRVTPEIPAGLPSPRSE | 2.83 |  | 4.61 | no binding (tested: 100 nM (FIG. 10)) |  | 0.56 | 347 | no binding (tested: 100 nM (FIG. 10)) |  | 
scCD40L-sc4-1BBL (ligand, scDuokine from HEK293; VH leader left out; also called single-chain Duokine scCD40L-sc4-1BBL; not shown: N-terminal FLAG tag) GDQNPQIAAHVISEASSKTTSVLQWAEKGYYTMSNNLVTLENGKQLTVKRQGLYYIYAQVTFCSNREASSQAPFIASLCLKSPGRFERILLRAANTHSSAKPCGQQSIHLGGVFELQPGASVFVNVTDPSQVSHGTGFTSFGLLKLGGGSGGGGDQNPQIAAHVISEASSKTTSVLQWAEKGYYTMSNNLVTLENGKQLTVKRQGLYYIYAQVTFCSNREASSQAPFIASLCLKSPGRFERILLRAANTHSSAKPCGQQSIHLGGVFELQPGASVFVNVTDPSQVSHGTGFTSFGLLKLGGGSGGGGDQNPQIAAHVISEASSKTTSVLQWAEKGYYTMSNNLVTLENGKQLTVKRQGLYYIYAQVTFCSNREASSQAPFIASLCLKSPGRFERILLRAANTHSSAKPCGQQSIHLGGVFELQPGASVFVNVTDPSQVSHGTGFTSFGLLKLGGGGSGGGTGGGGSREGPELSPDDPAGLLDLRQGMFAQLVAQNVLLIDGPLSWYSDPGLAGVSLTGGLSYKEDTKELVVAKAGVYYVFFQLELRRVVAGEGSGSVSLALHLQPLRSAAGAAALALTVDLPPASSEARNSAFGFQGRLLHLSAGQRLGVHLHTEARARHAWQLTQGATVLGLFRVTPEIPAGLPSPRSEGGGGSGGGGSGGGGSREGPELSPDDPAGLLDLRQGMFAQLVAQNVLLIDGPLSWYSDPGLAGVSLTGGLSYKEDTKELVVAKAGVYYVFFQLELRRVVAGEGSGSVSLALHLQPLRSAAGAAALALTVDLPPASSEARNSAFGFQGRLLHLSAGQRLGVHLHTEARARHAWQLTQGATVLGLFRVTPEIPAGLPSPRSEGGGGSGGGGSGGGGSREGPELSPDDPAGLLDLRQGMFAQLVAQNVLLIDGPLSWYSDPGLAGVSLTGGLSYKEDTKELVVAKAGVYYVFFQLELRRVVAGEGSGSVSLALHLQPLRSAAGAAALALTVDLPPASSEARNSAFGFQGRLLHLSAGQRLGVHLHTEARARHAWQLTQGATVLGLFRVTPEIPAGLPSPRSE | 0.26 |  | 3.17 |  | no binding (tested: 100 nM (FIG. 10)) |  |  | no binding (tested: 100 nM (FIG. 10)) | 5.23 | 7.02
